Source: PMC9820243, “Structural and Functional Characterization of a New Bacterial Dipeptidyl Peptidase III Involved in Fruiting Body Formation in Myxobacteria” (International Journal of Molecular Sciences, 2022)

B1: Dipeptidyl peptidase III from Corallococcus sp. EGB (recombinant CoDPP III) (enzyme, UniProt A0A5H1ZR28 1-537, looked up)
chain: RLPDAPTLKRMTARFAPVDVKVDVSKLPDAEKRALAKILQAAKIMDPLFLSQAWAGNPTLLLDLVEDTTPLGKERLHAFLLNKGPWSRLDEAKPFIPGVPPKPDEGNFYPAGATKAEVEAWVKSLPEAQQHAATGFFTTVRKGPDGKFLTVPYSVEYQGELGMAAKLLREAAALTQQSTLKRFLETRAEAFLSNDYYASEVAWMELDASVEPTIGPYEVYEDGWFNYKAAFEAFIGVRDEAETQKLAKFSAELQELENNLPIEPALRNPKLGALAPIRVINSLYSSGDGNRGVQTAAYNLPNDERVAAEKGTKRVMLKNIQEAKFQRVLVPIAKVALPAKDRKDVSFDAFFTHILMHELMHGLGPHNVTVAGKQTTVRQALQASSSAIEEAKADISGLWALQRLVDKGTLDKELQRTMYTTFLASAFRSIRFGIDEAHGKGIALQLNHFLDTGAVKVNADGTFEVVPDKMQASVTSLTNQLMSLQAKGDRAAAEELLAKQGVVRPSVQKVLEKLKNVPVDIEPRYVTAESLVKDFGA
notes: signal peptide in the construct; dipeptidyl peptidase III (CoDPP III) of Corallococcus sp; EGB, open reading frame of 1719 bp encoding 572 amino acids, predicted signal peptide residues 1 to 22; cloned into Nde I and Xho I sites of pET29a(+); The Xho I site of pET29a probably adds Leu-Glu before the His6 tag (surmised); also called native DPP III; source: E. coli BL21(DE3), purified (CM-Sepharose …)
B2: Selenomethionine-labelled dipeptidyl peptidase III from Corallococcus sp. EGB (enzyme, UniProt A0A5H1ZR28 1-537, looked up)
chain: RLPDAPTLKRMTARFAPVDVKVDVSKLPDAEKRALAKILQAAKIMDPLFLSQAWAGNPTLLLDLVEDTTPLGKERLHAFLLNKGPWSRLDEAKPFIPGVPPKPDEGNFYPAGATKAEVEAWVKSLPEAQQHAATGFFTTVRKGPDGKFLTVPYSVEYQGELGMAAKLLREAAALTQQSTLKRFLETRAEAFLSNDYYASEVAWMELDASVEPTIGPYEVYEDGWFNYKAAFEAFIGVRDEAETQKLAKFSAELQELENNLPIEPALRNPKLGALAPIRVINSLYSSGDGNRGVQTAAYNLPNDERVAAEKGTKRVMLKNIQEAKFQRVLVPIAKVALPAKDRKDVSFDAFFTHILMHELMHGLGPHNVTVAGKQTTVRQALQASSSAIEEAKADISGLWALQRLVDKGTLDKELQRTMYTTFLASAFRSIRFGIDEAHGKGIALQLNHFLDTGAVKVNADGTFEVVPDKMQASVTSLTNQLMSLQAKGDRAAAEELLAKQGVVRPSVQKVLEKLKNVPVDIEPRYVTAESLVKDFGA
modifications: selenomethionine (Se-Met labelled)
notes: signal peptide in the construct; dipeptidyl peptidase III (CoDPP III) of Corallococcus sp; EGB, same pET29a-Codpp III construct as m1 (572 amino acids, predicted signal peptide residues 1 to 22); the final model lacks 27 amino acids at the N-terminus and 8 (chain A) or 12 (chain B) at the C-terminus; Same construct as m1, expressed in a methionine auxotroph with Se-Met; also called Se-CoDPPIII; …

Columns and labels:
[1] = target: the molecule itself; assay: SEC; HiLoad 16/600 Superdex 200 pg, 20 mM Tris-HCl (pH 7.0) with 0.1 M NaCl, 1 mL/min; mass standards ovalbumin, conalbumin, aldolase, ferritin
[2] = target: the molecule itself; assay: crystal structure; Se-Met-labelled protein, sitting-drop vapor diffusion at 20 °C, 0.1 M sodium acetate trihydrate pH 4.59, 24% w/v PEG 3350, 0.01 M TCEP; SAD, 1.90 Å; ligand-free, two molecules in the asymmetric unit

Protein	stoichiometry N [1]	binding result [2]
B1	2	
B2		binds
